Reference: US20260242478A1 (published 2026)
Where no end group is shown, it is not given here.

Assays:
[1] = target: T1, Anti-CD28 Fab (SEQ ID NOs: 696, 697); assay: phage ELISA; biotinylated anti-CD28 Fab on neutravidin plate, clonal phage supernatant, anti-M13 HRP
T1 construct: In the phage ELISA the Fab was biotinylated and captured on neutravidin coated plates
T1 sequence (VH, as listed by the source, chain 1 of 2): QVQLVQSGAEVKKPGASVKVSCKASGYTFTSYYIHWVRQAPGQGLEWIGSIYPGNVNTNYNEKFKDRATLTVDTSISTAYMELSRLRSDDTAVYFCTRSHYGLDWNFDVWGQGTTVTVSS
T1 sequence (VL, as listed by the source, chain 2 of 2): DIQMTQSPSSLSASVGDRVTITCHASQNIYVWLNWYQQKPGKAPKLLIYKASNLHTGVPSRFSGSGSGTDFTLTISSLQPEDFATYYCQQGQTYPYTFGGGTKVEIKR

[2] = target: T1, Anti-CD28 Fab (SEQ ID NOs: 696, 697); assay: phage ELISA; captured anti-CD28 Fab pre-incubated with CD28 antigen as competitor, anti-M13 HRP;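 note: crude clonal phage supernatants added without washing after CD28 pre-incubation, bound phage detected with HRP anti-M13 antibody, reference wells got blocking buffer lacking CD28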
[3] = target: T2, Anti-CD28 Fab (SEQ ID NOs: 696, 697); assay: phage binding ELISA on captured anti-CD28 Fab; competitor: CD28 antigen at saturating concentration
T2 construct: Biotinylated and captured on neutravidin coated plates in the phage ELISA
T2 sequence (VH, as listed by the source, chain 1 of 2): as the sequence (VH, as listed by the source, chain 1 of 2) above
T2 sequence (VL, as listed by the source, chain 2 of 2): as the sequence (VL, as listed by the source, chain 2 of 2) above
Method: (§1) After panning, phage infected bacteria were plated out and colonies picked into 96 well blocks. Clonal phage was then amplified and separated from bacterial cells via centrifugation.
(§2) Clonal phage were harvested as crude supematants and screened via standard ELISAs. […] Prior to the addition of clonal phage, wells were incubated with blocking buffer and CD28 antigen or blocking buffer alone. Without washing or aspirating, clonal phage supematants were then added to the wells and incubated for a short time. Wells were then washed followed by detection of bound phage using a horse radish conjugated anti-M13 antibody. Clonal phage of interest were then sent for sequence analysis.

[4] = target: T2, Anti-CD28 Fab (SEQ ID NOs: 696, 697); assay: phage binding ELISA; biotinylated anti-CD28 Fab on neutravidin plate, bound phage detected with anti-M13 HRP;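 note: crude supernatants of clonal phage screened, wells pretreated with blocking buffer with or without CD28 antigen before brief phage incubation, washed, then bound phage detected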
Method: as §1, §2

[5] = target: T3, Anti-CD28 Fab (SEQ ID NOs: 696, 697); assay: phage binding ELISA; clonal phage on plate-captured biotinylated anti-CD28 Fab, anti-M13 HRP detection
T3 construct: In the phage ELISA the Fab was biotinylated and captured on neutravidin coated plates
T3 sequence (VH, as listed by the source, chain 1 of 2): as the sequence (VH, as listed by the source, chain 1 of 2) above
T3 sequence (VL, as listed by the source, chain 2 of 2): as the sequence (VL, as listed by the source, chain 2 of 2) above
Method: as §1, §2

[6] = target: T3, Anti-CD28 Fab (SEQ ID NOs: 696, 697); assay: phage binding ELISA on plate-captured anti-CD28 Fab pre-incubated with CD28 antigen as competitor
Method: as §1, §2

Binder	Anti-CD28 Fab signal (phage binding ELISA) [1]	Anti-CD28 Fab signal in the presence of CD28 (phage binding ELISA) [2]	Anti-CD28 Fab signal in the presence of CD28 [3]	Anti-CD28 Fab signal [4]	also measured
YCEGHSVEYILKCL (cysteine pairing not given here; also: displayed on phage by fusion to pIII, linker and pIII sequence not given here) [Phage-1206]	1.04	0.06	–	–	–
YCDGHKPEYMDKCL (tested as crude clonal phage supernatant) [Phage-1219]	–	–	0.07	0.99	–
YCEGHLWEYMKKCL (cysteine pairing not given here; also: displayed on phage by fusion to pIII, linker and pIII sequence not given here) [Phage-1197]	1.06	0.07	–	–	–
YCDGHSSAYIDKCL (cysteine pairing not given here; also: displayed on phage by fusion to pIII, linker and pIII sequence not given here) [Phage-1201]	1.05	0.06	–	–	–
YCEGHAPQYMSKCL (cysteine pairing not given here; also: displayed on phage by fusion to pIII, linker and pIII sequence not given here) [Phage-1204]	1.04	0.08	–	–	–
YCDGHVGAYMWKCL (tested as crude clonal phage supernatant) [Phage-1220]	–	–	0.06	0.99	–
YCAGHSSEYLQKCL (tested as crude clonal phage supernatant) [Phage-1209]	–	–	0.09	1.03	–
YCEGHSSVYLWKCL (tested as crude clonal phage supernatant) [Phage-1214]	–	–	0.05	1	–
YCEGHIEQYMRKCL (tested as crude clonal phage supernatant) [Phage-1211]	–	–	0.06	1.01	–
YCEGHRPEYMANCL (tested as crude clonal phage supernatant) [Phage-1217]	–	–	0.06	1	–
YCDGHDARYMTKCL (cysteine pairing not given here; also: displayed on phage by fusion to pIII, linker and pIII sequence not given here) [Phage-1205]	1.04	0.09	–	–	–
YCDGHAPEFIRKCL (cysteine pairing not given here; also: displayed on phage by fusion to pIII, linker and pIII sequence not given here) [Phage-1203]	1.05	0.07	–	–	–
YCSGHSWAYIGKCL (cysteine pairing not given here; also: displayed on phage by fusion to pIII, linker and pIII sequence not given here, Tested as clonal phage supernatant) [Phage-1224]	–	–	–	–	Anti-CD28 Fab signal (phage binding ELISA) [5]: 0.98; Anti-CD28 Fab signal in the presence of CD28 (phage binding ELISA) [6]: 0.07
YCEGHIEPYMQKCL (tested as crude clonal phage supernatant) [Phage-1218]	–	–	0.06	0.99	–
YCEGHSWIYIAKCL (tested as crude clonal phage supernatant) [Phage-1215]	–	–	0.07	1	–
YCFGHFPEYMAKCL (cysteine pairing not given here; also: displayed on phage by fusion to pIII, linker and pIII sequence not given here, Tested as clonal phage supernatant) [Phage-1222]	–	–	–	–	Anti-CD28 Fab signal (phage binding ELISA) [5]: 0.98; Anti-CD28 Fab signal in the presence of CD28 (phage binding ELISA) [6]: 0.07

Binder	Anti-CD28 Fab signal (phage binding ELISA) [1]	Anti-CD28 Fab signal in the presence of CD28 (phage binding ELISA) [2]	Anti-CD28 Fab signal in the presence of CD28 [3]	Anti-CD28 Fab signal [4]	also measured
YCQGHFPQYMAKCL (cysteine pairing not given here; also: displayed on phage by fusion to pIII, linker and pIII sequence not given here, Tested as clonal phage supernatant) [Phage-1226]	–	–	–	–	Anti-CD28 Fab signal (phage binding ELISA) [5]: 0.97; Anti-CD28 Fab signal in the presence of CD28 (phage binding ELISA) [6]: 0.07
YCEGHVPEYLVKCL (cysteine pairing not given here; also: displayed on phage by fusion to pIII, linker and pIII sequence not given here, Tested as clonal phage supernatant) [Phage-1227]	–	–	–	–	Anti-CD28 Fab signal (phage binding ELISA) [5]: 0.96; Anti-CD28 Fab signal in the presence of CD28 (phage binding ELISA) [6]: 0.06
YCEGHLPSYLAKCL (cysteine pairing not given here; also: displayed on phage by fusion to pIII, linker and pIII sequence not given here) [Phage-1202]	1.05	0.06	–	–	–
YCEGHSSEYLGKCL (cysteine pairing not given here; also: displayed on phage by fusion to pIII, linker and pIII sequence not given here) [Phage-1199]	1.05	0.09	–	–	–
YCEGHSAIYIAKCM (cysteine pairing not given here; also: displayed on phage by fusion to pIII, linker and pIII sequence not given here, Tested as clonal phage supernatant) [Phage-1221]	–	–	–	–	Anti-CD28 Fab signal (phage binding ELISA) [5]: 0.98; Anti-CD28 Fab signal in the presence of CD28 (phage binding ELISA) [6]: 0.11
YCDGHLAEYIQKCL (tested as crude clonal phage supernatant) [Phage-1208]	–	–	0.08	1.04	–
YCAGHAAEYMWKCL (cysteine pairing not given here; also: displayed on phage by fusion to pIII, linker and pIII sequence not given here, Tested as clonal phage supernatant) [Phage-1225]	–	–	–	–	Anti-CD28 Fab signal (phage binding ELISA) [5]: 0.97; Anti-CD28 Fab signal in the presence of CD28 (phage binding ELISA) [6]: 0.06
YCFGHAPEYLLKCL (tested as crude clonal phage supernatant) [Phage-1212]	–	–	0.08	1.01	–
YCAGHSQVYMWKCL (tested as crude clonal phage supernatant) [Phage-1210]	–	–	0.06	1.02	–
YCEGHLREYMLKCL (tested as crude clonal phage supernatant) [Phage-1213]	–	–	0.07	1.01	–
YCDGHTGMYISKCL (cysteine pairing not given here; also: displayed on phage by fusion to pIII, linker and pIII sequence not given here, Tested as clonal phage supernatant) [Phage-1223]	–	–	–	–	Anti-CD28 Fab signal (phage binding ELISA) [5]: 0.98; Anti-CD28 Fab signal in the presence of CD28 (phage binding ELISA) [6]: 0.06
YCEGHDVQYMQKCL (cysteine pairing not given here; also: displayed on phage by fusion to pIII, linker and pIII sequence not given here) [Phage-1198]	1.06	0.08	–	–	–
YCDGHLEVYMSKCL (tested as crude clonal phage supernatant) [Phage-1216]	–	–	0.09	1	–
YCDGHLPRYMEKCM (cysteine pairing not given here; also: displayed on phage by fusion to pIII, linker and pIII sequence not given here) [Phage-1200]	1.05	0.06	–	–	–
YCEGHSSAYMRKCL (cysteine pairing not given here; also: displayed on phage by fusion to pIII, linker and pIII sequence not given here) [Phage-1207]	1.04	0.06	–	–	–
